Reference: article PMC11871066, “Structure-based discovery of hydrocarbon-stapled paxillin peptides that block FAK scaffolding in cancer” (Nature Communications, 2025)

Key:
Experiment in all cases: SPR
[1] = molecular target: T1, Paxillin LD2 peptide (141-…-153); conditions: chain shown with the change, right panel, peptide concentration not given
T1 chain: NLSELDRLLLELN

[2] = molecular target: T2, Peptide 2013, unstapled version of 1907, P49023; conditions: chain shown with the change; right panel; peptide concentration not given
T2 chain: NL

[3] = molecular target: T3, Stapled peptide 1907, P49023; conditions: chain shown with the change; right panel; peptide concentration not given
T3 chain: NL

B1: Biotinylated AviTag FAK FAT protein, Q05397 I936E; L994E (protein)
chain: MAAAYLDPNLNHTPNSSTKTHLGTGMERSPGAMERVLKVFHYFESNSEPTTWASIIRHGDATDVRGIIQKIVDSHKVKHVACYGFRLSHLRSEEVHWLHVDMGVSSVREKYELAHPPEEWKYELRIRYLPKGFLNQFTEDKPTLNFFYQQVKSDYMLEIADQVDQEIALKLGCLEIRRSYWEMRGNALEKKSNYEVLEKDVGLKRFFPKSLLDSVKAKTLRKLIQQTFRQFANLNREESILKFFEILSPVYRFDKECFKCALGSSWIISVELAIGPEEGISYLTDKGCNPTHLADFTQVQTIQYSNSEDKDRKGMLQLKIAGAPEPLTVTAPSLTIAENMADLIDGYCRLVNGTSQSFIIRPQKEGERALPSIPKLANSEKQGMRTHAVSVSETDDYAEIIDEEDTYTMPSTRDYEIQRERIELGRCIGEGQFGDVHQGIYMSPENPALAVAIKTCKNCTSDSVREKFLQEALTMRQFDHPHIVKLIGVITENPVWIIMELCTLGELRSFLQVRKYSLDLASLILYAYQLSTALAYLESKRFVHRDIAARNVLVSSNDCVKLGDFGLSRYMEDSTYYKASKGKLPIKWMAPESINFRRFTSASDVWMFGVCMWEILMHGVKPFQGVKNNDVIGRIENGERLPMPPNCPPTLYSLMTKCWAYDPSRRPRFTELKAQLSTILEEEKAQQEERMRMESRRQATVSWDSGGSDEAPPKPSRPGYPSPRSSEGFYPSPQHMVQTNHYQVSGYPGSHGITAMAGSIYPGQASLLDQTDSWNHRPQEIAMWQPNVEDSTVLDLRGIGQVLPTHLMEERLIRQQQEMEEDQRWLEKEERFLKPDVRLSRGSIDREDGSLQGPIGNQHIYQPVGKPDPAAPPKKPPRPGAPGHLGSLASLSSPADSYNEGVKLQPQEISPPPTANLDRSNDKVYENVTGLVKAVEEMSSKIQPAPPEEYVPMVKEVGLALRTLLATVDETIPLLPASTHREIEMAQKLLNSDEGELINKMKLAQQYVMTSLQQEYKKQMLTAAHALAVDAKNLLDVIDQARLKMLGQTRPH
- ratio to parent [1]: 4
- response ([1]; plateau of the sensorgram near the end of injection (about 75 s), parent: est. 58, read off a plot): 14 RU
- ratio to parent [2]: 33
- ratio to parent [3]: 238
